Target: FlAsH-tagged K63-linked diubiquitin (UniProt P0CG48)
Assay: fluorescence polarisation; FlAsH-tagged K63-linked diUb (diluted to 80 nM, mixed 1:1) with serially diluted OTUD1; 50 mM Tris, 50 mM NaCl, 0.1% β-mercaptoethanol, pH 7.6; room temperature, 1 h

B1: OTUD1 catalytic domain (residues 287-435) C320A (domain or fragment)
chain: DEKLALYLAEVEKQDKYLRQRNKYRFHIIPDGNALYRAVSKTVYGDQSLHRELREQTVHYIADHLDHFSPLIEGDVGEFIIAAAQDGAWAGYPELLAMGQMLNVNIHLTTGGRLESPTVSTMIHYLGPEDSLRPSIWLSWLSNGHYDAV
Q: B1 was tested. Which Kd did it give?
A: 40 µM

— paper PMC6172466
